The Human Domainome abundance scans (Beltran et al. 2025)
± gives the uncertainty stated by the source.

B1: Homeobox protein cut-like 1, residues 941 to 1008; numbered along this chain, P39880 (parent)
chain: QEVDTIELTRQVKEKLAKNGICQRIFGEKVLGLSQGSVSDMLSRPKPWSKLTQKGREPFIRMQLWLNG

Variants of: B1
Assay: abundance fitness (aPCA) (normalised: wild type 0, dead -1); higher = more abundant; growth selection in yeast, the domain comes from the species named
Details: Homo sapiens

Abundance fitness of substitutions, site by site:
E14: R -0.054 ± 0.045 | N -0.063 ± 0.21 | P 0.005 ± 0.07 | Q -0.14 ± 0.083 | S -0.143 ± 0.062 | Y -0.418 ± 0.23 | T -0.121 ± 0.076 | K -0.111 ± 0.094 | V -0.214 ± 0.067 | C -0.086 ± 0.083 | W -0.221 ± 0.053 | G -0.156 ± 0.064 | H -0.498 ± 0.23 | L -0.152 ± 0.059 | F -0.443 ± 0.12
R10: W -0.509 ± 0.067 | S -0.111 ± 0.055 | F -0.307 ± 0.098 | L -0.246 ± 0.049 | P -0.157 ± 0.075 | A -0.096 ± 0.063 | H -0.226 ± 0.12 | I -0.301 ± 0.094 | K 0.074 ± 0.073 | E -0.056 ± 0.088 | Q -0.135 ± 0.068 | D -0.112 ± 0.11 | N 0.036 ± 0.097 | C -0.22 ± 0.083 | G -0.089 ± 0.047 | Y -0.306 ± 0.11
E7: I -0.565 ± 0.37 | A 0.14 ± 0.47 | S 0.172 ± 0.3
T9: R -0.212 ± 0.049 | K -0.109 ± 0.079 | C -0.087 ± 0.093 | E -0.191 ± 0.089 | M -0.384 ± 0.069 | W -0.197 ± 0.074 | G -0.047 ± 0.063 | I -0.113 ± 0.086 | P -0.28 ± 0.068 | D -0.168 ± 0.14 | Y -0.577 ± 0.13 | L -0.405 ± 0.046 | A 0.026 ± 0.063 | S -0.149 ± 0.053 | N -0.348 ± 0.15 | H -0.142 ± 0.12
K15: C -0.119 ± 0.095 | P -0.052 ± 0.084 | L -0.057 ± 0.063 | R -0.096 ± 0.063 | Q -0.119 ± 0.075 | E -0.083 ± 0.13 | H -0.259 ± 0.11 | S -0.221 ± 0.065 | W -0.238 ± 0.083 | D -0.586 ± 0.13 | I -0.085 ± 0.14 | A -0.147 ± 0.11 | M -0.148 ± 0.075 | V -0.228 ± 0.074 | F -0.175 ± 0.11 | T -0.196 ± 0.081 | G -0.366 ± 0.077 | Y 0.145 ± 0.096 | N -0.012 ± 0.11
I6: A 0.076 ± 0.062 | S -0.259 ± 0.053 | N -0.09 ± 0.1 | V -0.046 ± 0.061 | K 0.089 ± 0.068 | H -0.005 ± 0.095 | M 0.06 ± 0.059 | D -0.268 ± 0.13 | T -0.029 ± 0.062 | L -0.161 ± 0.045 | W -0.368 ± 0.074 | R -0.053 ± 0.045 | Y -0.129 ± 0.081 | C -0.091 ± 0.08 | F -0.081 ± 0.073 | G -0.049 ± 0.063
L16: F -0.257 ± 0.095 | W -0.194 ± 0.07 | M 0.107 ± 0.071 | I -0.198 ± 0.13 | Y -0.278 ± 0.1 | N -0.217 ± 0.15 | C -0.073 ± 0.087 | G -0.015 ± 0.076 | T 0.023 ± 0.077 | Q -0.102 ± 0.074 | D -0.189 ± 0.12 | P 0.004 ± 0.068 | R -0.033 ± 0.056 | H 0.009 ± 0.099 | V -0.162 ± 0.062 | A -0.188 ± 0.067 | S -0.033 ± 0.055 | E -0.032 ± 0.09
K18: L -0.168 ± 0.047 | I -0.085 ± 0.12 | D -0.397 ± 0.11 | R -0.139 ± 0.048 | G -0.226 ± 0.056 | N -0.051 ± 0.12 | E 0 ± 0.071 | A -0.083 ± 0.053 | Y -0.527 ± 0.15 | S -0.102 ± 0.057 | Q -0.134 ± 0.082 | W -0.272 ± 0.071 | H -0.412 ± 0.14 | M -0.059 ± 0.068 | C -0.261 ± 0.14 | V -0.184 ± 0.05 | F -0.287 ± 0.089
A17: T -0.163 ± 0.069 | C -0.154 ± 0.089 | H -0.108 ± 0.11 | D 0.014 ± 0.098 | V -0.087 ± 0.047 | W -0.269 ± 0.059 | Y -0.214 ± 0.12 | Q -0.115 ± 0.077 | E -0.066 ± 0.073 | I -0.022 ± 0.1 | K 0.033 ± 0.091 | N -0.123 ± 0.17 | L -0.148 ± 0.05 | G -0.205 ± 0.049 | F -0.116 ± 0.12 | M -0.171 ± 0.075 | R -0.011 ± 0.052
I21: G -0.473 ± 0.071 | M -0.1 ± 0.069 | N -0.283 ± 0.15 | H -0.425 ± 0.11 | F -0.115 ± 0.11 | Q -0.184 ± 0.072 | C -0.419 ± 0.1 | A -0.489 ± 0.089 | Y 0.019 ± 0.098 | E -0.22 ± 0.09 | K -0.381 ± 0.09 | R -0.402 ± 0.044 | D -0.559 ± 0.17 | L -0.08 ± 0.046 | P -0.319 ± 0.071 | W 0 ± 0.052 | T -0.197 ± 0.063
Q23: H -0.117 ± 0.13 | M -0.195 ± 0.096 | F -0.265 ± 0.087 | T -0.104 ± 0.076 | I -0.537 ± 0.26 | Y -0.162 ± 0.18 | L -0.038 ± 0.051 | E -0.068 ± 0.09 | V -0.321 ± 0.069 | C -0.281 ± 0.17 | G -0.28 ± 0.068 | A -0.161 ± 0.082 | D -0.429 ± 0.29 | S -0.029 ± 0.066 | W -0.044 ± 0.076 | K -0.245 ± 0.093 | R -0.019 ± 0.051 | P -0.044 ± 0.07 | N -0.133 ± 0.11
D4: V -0.581 ± 0.052 | T -0.25 ± 0.057 | R -0.368 ± 0.06 | S -0.261 ± 0.05 | W -0.552 ± 0.078 | Y -0.43 ± 0.074
N19: D 0.17 ± 0.086 | P 0.043 ± 0.072 | T 0.034 ± 0.062 | M 0.017 ± 0.078 | E 0.098 ± 0.059 | Y -0.331 ± 0.12 | F 0.07 ± 0.094 | Q 0.042 ± 0.061 | I 0.075 ± 0.12 | L 0.125 ± 0.052 | W -0.234 ± 0.082 | V 0.023 ± 0.05 | G -0.087 ± 0.052 | A -0.033 ± 0.053 | K -0.019 ± 0.08
C22: T 0.02 ± 0.062 | H -0.006 ± 0.11 | S 0.049 ± 0.057 | L -0.102 ± 0.056 | F -0.133 ± 0.1 | Y -0.28 ± 0.094 | P -0.069 ± 0.077 | M -0.062 ± 0.077 | K -0.229 ± 0.084 | N -0.192 ± 0.11 | V -0.196 ± 0.052 | E -0.155 ± 0.073 | D -0.045 ± 0.11 | G -0.27 ± 0.053 | Q -0.256 ± 0.08 | A -0.053 ± 0.056 | R -0.16 ± 0.048 | W -0.161 ± 0.071
V12: Q -0.143 ± 0.083 | R -0.131 ± 0.052 | M -0.084 ± 0.095 | T -0.177 ± 0.062 | D -0.049 ± 0.079 | P -0.008 ± 0.065 | H -0.142 ± 0.11 | E -0.113 ± 0.069 | K -0.183 ± 0.086 | Y -0.175 ± 0.089 | C -0.461 ± 0.35 | W -0.226 ± 0.072 | L -0.359 ± 0.05 | I -0.338 ± 0.074 | N -0.28 ± 0.11 | S -0.091 ± 0.059 | F -0.289 ± 0.077 | G -0.01 ± 0.063 | A -0.171 ± 0.055
K13: S -0.35 ± 0.056 | E -0.208 ± 0.074 | Y -0.475 ± 0.11 | A -0.339 ± 0.059 | C -0.459 ± 0.13 | R -0.119 ± 0.056 | T -0.146 ± 0.063 | N -0.132 ± 0.097 | H -0.254 ± 0.098 | F -0.768 ± 0.079 | Q -0.1 ± 0.07 | M -0.278 ± 0.073 | L -0.326 ± 0.045 | D -0.262 ± 0.081 | G -0.419 ± 0.062 | W -0.459 ± 0.088 | P -0.159 ± 0.059 | V -0.392 ± 0.046
G20: R -0.048 ± 0.047 | M -0.231 ± 0.081 | C -0.317 ± 0.082 | V -0.441 ± 0.054 | S -0.112 ± 0.062 | E -0.331 ± 0.083 | P -0.141 ± 0.075 | K 0.046 ± 0.091 | I -0.361 ± 0.11 | H -0.24 ± 0.12 | Q 0.067 ± 0.081 | F -0.239 ± 0.11 | T -0.087 ± 0.064 | W -0.287 ± 0.079 | A -0.135 ± 0.053 | Y -0.104 ± 0.14 | D -0.279 ± 0.11 | L -0.277 ± 0.053
Q11: A -0.13 ± 0.067 | R -0.084 ± 0.039 | G -0.165 ± 0.057 | I -0.308 ± 0.099 | P -0.092 ± 0.077 | D -0.298 ± 0.096 | H -0.114 ± 0.086 | W -0.448 ± 0.058 | V -0.274 ± 0.057 | N -0.234 ± 0.095 | K 0.132 ± 0.077 | L -0.125 ± 0.046 | C -0.323 ± 0.064 | S -0.152 ± 0.047 | T -0.142 ± 0.061
T5: N -0.223 ± 0.13 | A -0.253 ± 0.048 | Q -0.086 ± 0.065 | P -0.354 ± 0.066 | L -0.135 ± 0.045 | S -0.177 ± 0.056 | H -0.145 ± 0.14 | R -0.157 ± 0.046 | I -0.177 ± 0.11 | E -0.204 ± 0.066 | F -0.235 ± 0.11 | D -0.412 ± 0.092 | M -0.02 ± 0.067 | W -0.176 ± 0.06 | Y -0.192 ± 0.12 | K -0.121 ± 0.066 | V -0.383 ± 0.049 | C -0.233 ± 0.088 | G -0.329 ± 0.05
R24: P -0.559 ± 0.082 | F -0.362 ± 0.097 | I -0.29 ± 0.12 | S -0.136 ± 0.055 | T -0.268 ± 0.081 | C -0.22 ± 0.074 | M -0.315 ± 0.097 | G -0.224 ± 0.07 | D -0.074 ± 0.11 | N 0.005 ± 0.14 | E 0.109 ± 0.12 | Q -0.088 ± 0.081 | V -0.204 ± 0.062 | L -0.253 ± 0.055 | K -0.07 ± 0.09
L8: N 0.011 ± 0.092 | R -0.01 ± 0.055 | M 0.019 ± 0.06 | W -0.157 ± 0.078 | T 0.003 ± 0.062 | E 0.011 ± 0.083 | C -0.205 ± 0.094 | D 0.076 ± 0.11 | P -0.007 ± 0.062 | F -0.152 ± 0.067 | S -0.002 ± 0.051 | K 0.04 ± 0.078 | I 0.131 ± 0.096 | G 0.039 ± 0.081 | Q -0.032 ± 0.075 | A 0.051 ± 0.069 | Y -0.089 ± 0.089 | V 0.038 ± 0.064
